± gives the standard deviation.
Assay: protein stability index of a GFP-peptide fusion (GPS, HEK-293T) (PSI 1-6); higher = more stable
[1] = treatment: DMSO, c terminus: a fixed tail appended
[2] = treatment: MLN4924 1 uM, 8 h, c terminus: a fixed tail appended
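Further: 24-mer peptide tiles fused after GFP, lentivirally expressed, FACS-sorted into six equal bins by GFP/DsRed ratio, decoded by Illumina sequencing, PSI is the read-weighted mean bin number.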

Sequence | protein stability index [1] | protein stability index [2] | protein stability index (treatment: DMSO, c terminus: native) | protein stability index (treatment: MLN4924 1 uM, 8 h, c terminus: native)
KLFFVDTGSKEKGLTKKRTKVQKK [NOP53] | 3.26 ± 0.13 | 3.83 ± 0.54 |  | 
VRGLYDFYLPREELWIYNMETGRW [KLHDC2] | 2.57 ± 0.39 | 2.24 ± 0.48 |  | 
QYVITHAKVNILLVENDQQLQKIL [ACSBG2] | 2.5 ± 0.58 | 2.13 ± 0.2 |  | 
ELRNVQDVVEDYKKRYEEEINKRT [KRT71] | 3.62 ± 0.35 | 4.45 ± 0.24 |  | 
VHQLSKKEASRHAIMRSPQMVSAI [CTNNB1] | 3.06 ± 0.26 | 3.06 ± 0.22 |  | 
QSILLNTRLQDCYVDSPALTNIWM [C22orf31] | 2.24 ± 0.24 | 2.1 ± 0.36 |  | 
KEGEGEVGGEAVEVEEVENVQTEF [TRIM55] | 5.716 ± 0.023 | 5.59 ± 0.37 |  | 
EELQSWVRGHHPKSGEEAVTVLED [ZNF232] | 5.09 ± 0.38 | 5.07 ± 0.39 |  | 
LPDVSLGRYAYVRGGGDPWTNGSG [MCOLN1] | 2.51 ± 0.43 | 2.87 ± 0.22 |  | 
KWFGRKRTLSAFLCLGGLACLIVM [SLC22A15] | 5.07 ± 0.21 | 5.17 ± 0.18 |  | 
NAANRTGYVPSNYVERKNSLKKGS [NCK2] | 4.33 ± 0.3 | 4.45 ± 0.18 |  | 
GRPKELQPKKLHLCPLCGKNFSNN [ZNF263] | 2.88 ± 0.46 | 3.58 ± 0.52 |  | 
TPHVYWAQRHRELYLRVELSDVQN [HACD3] | 2.28 ± 0.14 | 2.17 ± 0.24 |  | 
KEQVLRKGTENLQRAQAEVLQSVR [FCHSD1] | 4.5 ± 0.096 | 4.56 ± 0.27 |  | 
DLETHRLPCTSRCPRPCRESAFKL [SCNN1D] | 2.41 ± 0.21 | 2.44 ± 0.063 |  | 
VAVNNIGRGPPSEPVLTQTSEQAP [PTPRD] | 4.78 ± 0.2 | 5.02 ± 0.49 |  | 
NNEIPDCYTFSVLITFDNKAHSGR [MCOLN1] | 2.34 ± 0.31 | 2.42 ± 0.53 |  | 
IYTNRYETNEEDKTLQEIYRKYRK [FBXO39] | 2.96 ± 0.32 | 3.58 ± 0.61 |  | 
PDIMNLLIKSGAHFDATNLHKQTA [FEM1C] | 2.39 ± 0.14 | 2.29 ± 0.26 |  | 
ADKYALERLKVMCEEALCSNLSVE [SPOPL] | 3.56 ± 0.18 | 3.62 ± 0.18 |  | 
GGSGGGGGGDEDGSLGSRAEPAPR [SMAD6] | 5.38 ± 0.21 | 5.41 ± 0.13 |  | 
VENPSTASHSLSPSEHVQGKSPVN [ZNF649] | 5.26 ± 0.17 | 5.21 ± 0.29 |  | 
EERERIERVRRIHIKRPDDRAHLH [KCTD10] | 4.43 ± 0.18 | 4.54 ± 0.23 |  | 

Sequence | protein stability index [1] | protein stability index [2] | protein stability index (treatment: DMSO, c terminus: native) | protein stability index (treatment: MLN4924 1 uM, 8 h, c terminus: native)
VVCVLLNLAGFILGCQGAQFVSSV [FAM189A2] | 3.35 ± 0.99 | 2.21 ± 0.42 |  | 
AEGSNSESSDDDSEEAPSTSGMGF [SDE2] | 5.37 ± 0.15 | 5.26 ± 0.36 |  | 
LHEVLTEVVPIHGRGNFPTLEITL [TENT5C] | 2.73 ± 0.56 | 2.53 ± 0.53 |  | 
AYRCGSGMQMAEDSKSLKTHQTQP [NET1] | 3.94 ± 0.16 | 3.22 ± 0.25 |  | 
MHRLGEPQARMREENMERIGEEVR [BEX1] | 5.14 ± 0.13 | 5.2 ± 0.21 |  | 
HFMVLSKSGPGDGFFSSAFQARLS [POMT2] | 2.19 ± 0.11 | 2.06 ± 0.18 |  | 
TFPKALTNGSFSPSGNNGSVNWRT [DLC1] | 3.14 ± 0.14 | 3.19 ± 0.23 |  | 
QAGSSQGLSLCQFQNFSLHDPLYG [LPCAT4] | 3 ± 0.41 | 2.98 ± 0.31 |  | 
SEIKNYNFQQPGFTSGTGHFTAMV [GLIPR2] | 2.41 ± 0.58 | 2.77 ± 0.16 |  | 
KEAQYIRTELVEQAFRAIDRADYY [PCMTD2] | 2.71 ± 0.27 | 2.88 ± 0.36 |  | 
SREITTLANNQCMATESVDHELGR [EHMT1] | 4.8 ± 0.28 | 4.84 ± 0.26 |  | 
MSDKYHDSDEATAARLLFNMAGVT [DCTD] | 3.53 ± 0.25 | 3.54 ± 0.36 |  | 
AESRGHSKGWGRNYASIIRRDCMW [MYCL] | 2.23 ± 0.2 | 2.61 ± 0.39 |  | 
DLSHIEGLSQAPQPLADEGPPGRS [SERTAD1] | 5.11 ± 0.31 | 5.14 ± 0.36 |  | 
ASASCSHWRECLFYPALWPQLRIC [FBXO33] | 2.44 ± 0.53 | 2.23 ± 0.39 |  | 
LFEEEDHVKKLQQKVATLEKRNRQ [CCDC3] | 4.46 ± 0.29 | 4.68 ± 0.23 |  | 
LAKALLKRTAQAIEPYITNFFNQV [PDS5B] | 2.58 ± 0.71 | 2.7 ± 0.72 |  | 
KEQILEFLVLEQFLTILPEELQSW [ZNF232] | 3.21 ± 0.27 | 2.85 ± 0.62 |  | 
AGAFGYFQQDTKGLVDFRDVALAL [LPCAT4] | 1.98 ± 0.18 | 2.12 ± 0.18 |  | 
GNVKIDSQKLNFREHAKARVDHGA [MAP2] | 4.22 ± 0.14 | 4.23 ± 0.52 |  | 
EKETMQFLNDRLANYLEKVRQLER [KRT36] | 2.87 ± 0.38 | 2.85 ± 0.32 |  | 
NHLPPQTKRSSRNPVFQDSWDTES [FAM104A] | 4.48 ± 0.29 | 4.59 ± 0.46 |  | 
HCKEKRKTSLLDQLTNTSGTVIGV [NETO1] | 3.37 ± 0.24 | 3.34 ± 0.31 |  | 

Sequence | protein stability index [1] | protein stability index [2] | protein stability index (treatment: DMSO, c terminus: native) | protein stability index (treatment: MLN4924 1 uM, 8 h, c terminus: native)
HMEGLIVRERILGADNIDVSHPII [FEM1B] | 3.25 ± 0.23 | 2.95 ± 0.28 |  | 
VRTTRGKRKRVDVEESEASSSVSI [LMNB1] | 5.13 ± 0.17 | 5.09 ± 0.44 |  | 
ANDYKDTLGKGSSLSAPSKKTSR [KRT71] |  |  | 5.26 ± 0.32 | 5.12 ± 0.47
IVIQTYYRQWHAKIFVENLRRQKS [IQUB] | 2.453 ± 0.011 | 3.12 ± 0.52 |  | 
NDAYGPPSNFLEIDVSNPQTVGVG [SNX3] | 4.68 ± 0.35 | 4.59 ± 0.08 |  | 
YSLTTSSTHKSSLCKVEIVCPPQS [RAB40A] | 2.64 ± 0.19 | 2.64 ± 0.12 |  | 
AIIASLTFLYTLLREVIHPLATSH [STEAP1] | 3.25 ± 0.34 | 2.89 ± 0.39 |  | 
SNLLSRFTRNEFNLESKSTIGVEF [RAB11A] | 2.36 ± 0.31 | 2.72 ± 0.49 |  | 
NNQYSEGVQREAQRIALRLGNGND [KMT2E] | 4.51 ± 0.24 | 4.63 ± 0.18 |  | 
VLLKKDVDAAYANKVELQAKVESM [KRT71] | 3.63 ± 0.36 | 3.65 ± 0.36 |  | 
LLTWTEPPVRPAGYLLSFHTPGGQ [TNXB] | 2.42 ± 0.23 | 2.64 ± 0.29 |  | 
AVVHEYALAVCLSFFYPVLFVLFM [SOAT1] | 3.29 ± 0.42 | 3.02 ± 0.21 |  | 
PIDVVEKYDPKTQEWSFLPSITRK [KLHL12] | 4.56 ± 0.27 | 4.64 ± 0.33 |  | 
GFIRFDKRIEAEEAIKGLNGQKPL [ELAVL3] | 3.66 ± 0.42 | 4.08 ± 0.49 |  | 
RRLFGPVDSEQLRRDCDALMAGCI [CDKN1A] | 2.75 ± 0.26 | 2.74 ± 0.34 |  | 
EMEKSFREEEKTFWKKYRTFWKED [CCDC70] | 3.77 ± 0.31 | 3.67 ± 0.35 |  | 
TKKKQWCYNCEEEAMYHCCWNTSY [ZMYND11] | 2.6 ± 0.25 | 2.45 ± 0.4 |  | 
SGLFNHRGIHNIQKRYHCKECGKV [ZSCAN9] | 3.08 ± 0.41 | 3.13 ± 0.35 |  | 
KETVNVKTVCGYYTSAGTYGLDSV [GMCL1] | 2.48 ± 0.29 | 2.68 ± 0.3 |  | 
LFCDVTLTAQGQQFHCHKAVLASC [KLHL14] | 2.66 ± 0.55 | 2.71 ± 0.57 |  | 
PALHPAHAPQISYTGPSSSGRFAG [NCK2] | 4.02 ± 0.15 | 4.15 ± 0.12 |  | 
TPKDKRVSNTPLRTVDGSPMMKAA [PALM] | 4.33 ± 0.3 | 4.39 ± 0.24 |  | 
YVKPQSCIDIVIRHVAPIPSHYDV [MOSPD3] | 2.97 ± 0.74 | 2.74 ± 0.85 |  | 

Sequence | protein stability index [1] | protein stability index [2] | protein stability index (treatment: DMSO, c terminus: native) | protein stability index (treatment: MLN4924 1 uM, 8 h, c terminus: native)
YECGVCAKKFMWRDSFMRHRGHCE [ZBTB22] | 5 ± 0.16 | 4.99 ± 0.17 |  | 
EVLVKSNNLTDRIVVIPGKVEEVS [CARM1] | 3.66 ± 0.19 | 3.8 ± 0.43 |  | 
EMAFNTRCKEENTIILQQLLPLRT [NLN] | 2.54 ± 0.55 | 2.5 ± 0.32 |  | 
TYRIENYTPDLPRADVDHAIEKAF [MMP1] | 3.4 ± 0.18 | 3.39 ± 0.31 |  | 
DVEGAESQLDEDEHGLHTKYIHRM [TRAF3IP2] | 5.09 ± 0.23 | 5.13 ± 0.11 |  | 
RFQDLVLRMLEYEPAARISPLGAL [DYRK1B] | 2.67 ± 0.47 | 2.4 ± 0.43 |  | 
AGAPPPSGSAVSTAPQQKPIGKIS [SRPK2] | 5.01 ± 0.26 | 5.04 ± 0.24 |  | 
MQVNPISKRMGPMTVVRMDASVQP [RHOBTB1] | 3.48 ± 0.19 | 3.43 ± 0.2 |  | 
ELGEEAMEKFREDEGFIKEEERPL [KCNA1] | 5.6 ± 0.31 | 5.63 ± 0.2 |  | 
MSTIGSFEGFQAVSLKQEGDDQPS [TPRG1] | 5.22 ± 0.082 | 5.22 ± 0.078 |  | 
ISGVTKAISSPTVSRLTDTTKFTG [TPPP] | 3.89 ± 0.27 | 3.85 ± 0.17 |  | 
GEKMVAAKVKGEKLDKKLKKMEQN [ATF4] | 5 ± 0.27 | 4.76 ± 0.18 |  | 
ARERAKLQIELGKCKAEHDQLLLN [LMNB1] | 3.47 ± 0.098 | 3.14 ± 0.1 |  | 
PSSQKALLLELKGLQEEPVEGFRV [CDC34] | 3.68 ± 0.14 | 3.47 ± 0.14 |  | 
FYAITTLHNLLLHQEGAKMAVRLA [CTNNB1] | 3.02 ± 0.17 | 2.79 ± 0.15 |  | 
GNNLHNASIPEHLAYGSVITVKNL [POMT2] | 3.05 ± 0.37 | 3.02 ± 0.28 |  | 
VVRICCIRSFGHFIARLQGSILQF [SMG5] | 2.57 ± 0.37 | 2.66 ± 0.57 |  | 
WWNHMHFQHHAKPNCFRKDPDINM [FADS1] | 2.17 ± 0.42 | 2.26 ± 0.49 |  | 
EKGTWTELEGDVAEPLAGPACVTV [KLHL14] | 4.66 ± 0.19 | 4.6 ± 0.19 |  | 
NNKYSYTSNSDDNMLKNIELFDKL [KCTD10] | 3.9 ± 0.068 | 3.9 ± 0.26 |  | 

Reference: the supplement of paper PMC10567573
